Data from PMC3229523, “Identification of Lactoferricin B Intracellular Targets Using an Escherichia coli Proteome Chip” (PLoS ONE, 2011).
Ends that are not written are not given here. * marks the point of attachment. Biotin = O=C1N[C@H]2[C@H](CS[C@H]2CCCCC(=O)*)N1

Tests used:
Assay in all cases: peptide or protein array; E. coli proteome chip: purified His-tagged proteins printed in duplicate on Fullmoon slides, blocked with 1% BSA; 10 nM N-terminal biotinylated LfcinB with 1% BSA, room temperature, 1 h; detected with DyLight 649-labeled streptavidin, ratio to DyLight 549-labeled anti-His antibody; ProCAT normalisation, local cut-off; triplicate chips
Settings in all cases: both partners purified
GlpK = target: T1, GlpK (E. coli K-12, UniProt P0A6F3 1-502)
T1 construct: GlpK, E. coli K-12
T1 sequence (P0A6F3 whole entry): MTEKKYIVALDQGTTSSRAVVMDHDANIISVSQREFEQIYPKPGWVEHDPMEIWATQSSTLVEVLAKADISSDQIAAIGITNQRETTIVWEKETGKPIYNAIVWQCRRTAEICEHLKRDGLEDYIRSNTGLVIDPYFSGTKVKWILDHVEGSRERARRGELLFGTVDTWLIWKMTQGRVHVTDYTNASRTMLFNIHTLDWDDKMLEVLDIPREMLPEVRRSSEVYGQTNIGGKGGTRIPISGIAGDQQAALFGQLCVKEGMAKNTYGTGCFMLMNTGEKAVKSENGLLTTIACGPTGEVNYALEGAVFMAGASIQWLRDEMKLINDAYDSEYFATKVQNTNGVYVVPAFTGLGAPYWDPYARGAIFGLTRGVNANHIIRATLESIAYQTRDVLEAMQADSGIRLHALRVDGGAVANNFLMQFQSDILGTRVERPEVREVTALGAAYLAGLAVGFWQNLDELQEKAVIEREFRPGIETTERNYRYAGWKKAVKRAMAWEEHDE

YhjC = target: T2, YhjC (E. coli K-12, UniProt P37641 1-299)
T2 construct: YhjC, E. coli K-12
T2 sequence (looked up): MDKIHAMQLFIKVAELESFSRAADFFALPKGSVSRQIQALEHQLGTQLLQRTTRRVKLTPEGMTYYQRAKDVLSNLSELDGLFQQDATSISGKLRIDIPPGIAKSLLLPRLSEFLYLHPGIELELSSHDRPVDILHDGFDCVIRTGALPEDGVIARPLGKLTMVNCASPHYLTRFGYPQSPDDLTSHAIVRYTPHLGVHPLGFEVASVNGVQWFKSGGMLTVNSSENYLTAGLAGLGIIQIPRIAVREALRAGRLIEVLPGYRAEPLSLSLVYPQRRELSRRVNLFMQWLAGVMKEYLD

GldA = target: T3, GldA (E. coli K-12, UniProt P0A9S5 1-367)
T3 construct: GldA, E. coli K-12
T3 sequence (looked up): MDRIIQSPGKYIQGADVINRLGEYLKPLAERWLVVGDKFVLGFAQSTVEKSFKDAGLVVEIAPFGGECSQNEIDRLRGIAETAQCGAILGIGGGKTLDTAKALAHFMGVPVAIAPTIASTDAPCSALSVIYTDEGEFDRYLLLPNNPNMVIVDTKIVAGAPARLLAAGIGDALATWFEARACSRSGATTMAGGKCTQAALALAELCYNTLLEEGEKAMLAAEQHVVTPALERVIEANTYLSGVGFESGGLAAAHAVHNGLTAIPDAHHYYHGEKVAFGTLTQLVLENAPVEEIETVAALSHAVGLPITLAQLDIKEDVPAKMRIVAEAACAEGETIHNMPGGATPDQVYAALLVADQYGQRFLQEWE

SoxS = target: T4, SoxS (E. coli K-12, UniProt P0A9E2 1-107)
T4 construct: SoxS, E. coli K-12
T4 sequence (looked up): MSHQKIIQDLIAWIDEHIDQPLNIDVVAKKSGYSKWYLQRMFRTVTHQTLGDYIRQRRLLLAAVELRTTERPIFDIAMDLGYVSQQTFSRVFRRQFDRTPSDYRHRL

YhiW = target: T5, YhiW (E. coli K-12, UniProt P63201 1-242)
T5 construct: YhiW, E. coli K-12
T5 sequence (looked up): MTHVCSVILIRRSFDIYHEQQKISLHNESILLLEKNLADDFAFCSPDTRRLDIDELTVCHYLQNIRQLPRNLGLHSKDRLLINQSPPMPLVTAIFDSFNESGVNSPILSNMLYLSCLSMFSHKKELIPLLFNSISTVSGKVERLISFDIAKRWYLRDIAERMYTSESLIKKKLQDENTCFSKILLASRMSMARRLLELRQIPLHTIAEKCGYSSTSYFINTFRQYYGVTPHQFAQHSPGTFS

SfmH = target: T6, SfmH (E. coli K-12, UniProt P75715 25-327)
T6 construct: SfmH, E. coli K-12
T6 sequence (looked up): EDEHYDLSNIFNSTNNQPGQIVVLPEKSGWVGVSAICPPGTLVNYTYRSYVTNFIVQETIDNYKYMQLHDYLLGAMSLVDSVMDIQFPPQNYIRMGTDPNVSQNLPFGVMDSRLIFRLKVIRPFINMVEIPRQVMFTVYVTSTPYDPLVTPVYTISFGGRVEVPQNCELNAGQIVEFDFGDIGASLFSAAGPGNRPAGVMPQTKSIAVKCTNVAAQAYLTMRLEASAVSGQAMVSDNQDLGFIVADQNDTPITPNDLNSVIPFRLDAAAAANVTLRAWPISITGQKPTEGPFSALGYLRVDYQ

HolB = target: T7, HolB (E. coli K-12, UniProt P28631 1-334)
T7 construct: HolB, E. coli K-12
T7 sequence (P28631 whole entry): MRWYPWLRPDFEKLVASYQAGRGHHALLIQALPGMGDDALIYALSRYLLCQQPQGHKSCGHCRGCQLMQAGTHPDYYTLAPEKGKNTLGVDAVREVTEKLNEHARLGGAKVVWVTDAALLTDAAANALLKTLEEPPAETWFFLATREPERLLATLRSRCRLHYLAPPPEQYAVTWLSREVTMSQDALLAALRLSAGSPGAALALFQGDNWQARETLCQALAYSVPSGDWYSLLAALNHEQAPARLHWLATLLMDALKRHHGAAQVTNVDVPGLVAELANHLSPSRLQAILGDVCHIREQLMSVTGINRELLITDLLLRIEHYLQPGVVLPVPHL

Measured: binding result

B1: N-terminal biotinylated Lactoferricin B (peptide, UniProt P24627 36-60, looked up)
peptide: Biotin-FKCRRWQWRMKKLGAPSITCVRRAF
modifications: ends and bridges not checked
notes: lactoferricin B (LfcinB), cationic antimicrobial peptide of 25 amino acids; also called biotinylated LfcinB; biotin-labeled LfcinB; source: bought: Kelowna Inc
binds: all assays above
